Experimental data reported in publication PMC9352680, “A comprehensive thermodynamic model for RNA binding by the Saccharomyces cerevisiae Pumilio protein PUF4”.

T1: PUF4 RNA-binding domain (Saccharomyces cerevisiae, UniProt P25339 537-888)
T1 sequence: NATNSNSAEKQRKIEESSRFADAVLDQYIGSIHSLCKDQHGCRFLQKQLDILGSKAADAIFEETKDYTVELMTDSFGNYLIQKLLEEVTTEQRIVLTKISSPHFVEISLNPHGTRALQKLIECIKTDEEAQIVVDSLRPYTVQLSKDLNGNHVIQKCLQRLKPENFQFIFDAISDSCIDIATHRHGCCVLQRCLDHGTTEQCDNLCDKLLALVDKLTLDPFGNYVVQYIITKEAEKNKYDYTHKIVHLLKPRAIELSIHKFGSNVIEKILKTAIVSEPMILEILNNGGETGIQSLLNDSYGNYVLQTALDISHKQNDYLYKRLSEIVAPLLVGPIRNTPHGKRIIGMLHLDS


biological target: T1, PUF4 RNA-binding domain; assay: Mg; RNA-MaP; 20 mM Na-HEPES pH 7.4, 30 mM KOAc, 0.75 mM MgCl2, 0.1% Tween-20, 5% glycerol, 0.1 mg/mL BSA, 2 mM DTT; 25 C; 0.0125-409.6 nM protein; conditions: tags: N-His6-TEV cleaved; C-SNAP kept, Cy3B-labelled; label: tethered on chip by stalled RNA polymerase

Row | Binder | Kd
1 | UCUCUUUGUAGCACUGUCUCUU (ssRNA) [Ic_S1_P5E.1_K5.1_C5.1_H5.1_A5.1_[T5G]_[T6C]_F5.1_[T8C]_[A10G]_T5.1] | > 2300 nM
2 | UCUCUUUGUAUAAGCCUCUCUU (ssRNA) [Ic_S1_P5E.1_K5.1_C5.1_H5.1_A5.1_[T6A]_F5.1_[T8G]_[T9C]_[A10C]_T5.1] | 794 nM
3 | UCUCUUUGUAUAUGAUCUCUU (ssRNA) [Ic_S1_P4E.1_K4.1_C4.1_H4.1_A4.1_F4.1_[T8G]_T4.1] | 15.4 nM
4 | UCUCUUUGUAGCCUAUUCUCUU (ssRNA) [Ic_S1_P5E.1_K5.1_C5.1_H5.1_A5.1_[T5G]_[T6C]_[A7C]_F5.1_[T9A]_[A10T]_T5.1] | 17.1 nM
5 | UCUCUUUGUACGUCUUUCUCUU (ssRNA) [Ic_S1_P5E.1_K5.1_C5.1_H5.1_A5.1_[T5C]_[T6G]_[A7T]_F5.1_[T8C]_[A10T]_T5.1] | 425 nM
6 | UCUCUUUGUACUACACUCUCUU (ssRNA) [Ic_S1_P5E.1_K5.1_C5.1_H5.1_A5.1_[T5C]_F5.1_[T8C]_[T9A]_[A10C]_T5.1] | 455 nM
7 | UCUCUUUGUACAGCCCUCUCUU (ssRNA) [Ic_S1_P5E.1_K5.1_C5.1_H5.1_A5.1_[T5C]_[T6A]_[A7G]_F5.1_[T8C]_[T9C]_[A10C]_T5.1] | 142 nM
8 | UCUCUUUGUACCUUUAUCUCUU (ssRNA) [Ic_S1_P5E.1_K5.1_C5.1_H5.1_A5.1_[T5C]_[T6C]_[A7T]_F5.1_T5.1] | 6.83 nM
9 | UCUCUUUGUAUACCGAUCUCUU (ssRNA) [Ic_S1_P5E.1_K5.1_C5.1_H5.1_A5.1_[T6A]_[A7C]_F5.1_[T8C]_[T9G]_T5.1] | 450 nM
10 | UCUCUUUGUAAAUUCUUCUCUU (ssRNA) [Ic_S1_P5E.1_K5.1_C5.1_H5.1_A5.1_[T5A]_[T6A]_[A7T]_F5.1_[T9C]_[A10T]_T5.1] | 20.1 nM
11 | UCUCUUUGUAGCUUUUUCUCUU (ssRNA) [Ic_S1_P5E.1_K5.1_C5.1_H5.1_A5.1_[T5G]_[T6C]_[A7T]_F5.1_[A10T]_T5.1] | 516 nM
12 | UCUCUUUGUACUAUACUCUCUU (ssRNA) [Ic_S1_P5E.1_K5.1_C5.1_H5.1_A5.1_[T5C]_F5.1_[T9A]_[A10C]_T5.1] | 2.18 nM
13 | UCUCUUUGUACGUCACUCUCUU (ssRNA) [Ic_S1_P5E.1_K5.1_C5.1_H5.1_A5.1_[T5C]_[T6G]_[A7T]_F5.1_[T8C]_[T9A]_[A10C]_T5.1] | 580 nM
14 | UCUCUUUGUAACCUAUUCUCUU (ssRNA) [Ic_S1_P5E.1_K5.1_C5.1_H5.1_A5.1_[T5A]_[T6C]_[A7C]_F5.1_[T9A]_[A10T]_T5.1] | 12.8 nM
15 | UCUCUUUGUACUGGCUUCUCUU (ssRNA) [Ic_S1_P5E.1_K5.1_C5.1_H5.1_A5.1_[T5C]_[A7G]_F5.1_[T8G]_[T9C]_[A10T]_T5.1] | 991 nM
16 | UCUCUUUGUAUAUGACUCUCUU (ssRNA) [Ic_S1_P5E.1_K5.1_C5.1_H5.1_A5.1_[T6A]_[A7T]_F5.1_[T8G]_[T9A]_[A10C]_T5.1] | 16.1 nM
17 | UCUCUUUGUAUCAAUUUCUCUU (ssRNA) [Ic_S1_P5E.1_K5.1_C5.1_H5.1_A5.1_[T6C]_F5.1_[T8A]_[A10T]_T5.1] | 85.2 nM
18 | UCUCUUUGUAUCUCCGUCUCUU (ssRNA) [Ic_S1_P5E.1_K5.1_C5.1_H5.1_A5.1_[T6C]_[A7T]_F5.1_[T8C]_[T9C]_[A10G]_T5.1] | 484 nM
19 | UCUCUUUGUAUUUGUCUCUU (ssRNA) [Ic_S1_P3E.1_K3.1_C3.1_H3.1_A3.1_[A6T]_F3.1_[A8G]_T3.1] | 106 nM
20 | UCUCUUUGUAAAAACCUCUCUU (ssRNA) [Ic_S1_P5E.1_K5.1_C5.1_H5.1_A5.1_[T5A]_[T6A]_F5.1_[T8A]_[T9C]_[A10C]_T5.1] | 1140 nM

Row | Binder | Kd
21 | UCUCUUUGUAACUAGUUCUCUU (ssRNA) [Ic_S1_P5E.1_K5.1_C5.1_H5.1_A5.1_[T5A]_[T6C]_[A7T]_F5.1_[T8A]_[T9G]_[A10T]_T5.1] | 642 nM
22 | UCUCUUUGUAUAUGAUUCUCUU (ssRNA) [Ic_S1_P5E.1_K5.1_C5.1_H5.1_A5.1_[T6A]_[A7T]_F5.1_[T8G]_[T9A]_[A10T]_T5.1] | 12.1 nM
23 | UCUCUUUGUAAACUGGUCUCUU (ssRNA) [Ic_S1_P5E.1_K5.1_C5.1_H5.1_A5.1_[T5A]_[T6A]_[A7C]_F5.1_[T9G]_[A10G]_T5.1] | 16.9 nM
24 | UCUCUUUGUAUGUCUCUCUU (ssRNA) [Ic_S1_P3E.1_K3.1_C3.1_H3.1_A3.1_[A6G]_F3.1_[A8C]_T3.1] | 677 nM
25 | UCUCUUUGUAACAUGCUCUCUU (ssRNA) [Ic_S1_P5E.1_K5.1_C5.1_H5.1_A5.1_[T5A]_[T6C]_F5.1_[T9G]_[A10C]_T5.1] | 13.2 nM
26 | UCUCUUUGUAGCUGUAUCUCUU (ssRNA) [Ic_S1_P5E.1_K5.1_C5.1_H5.1_A5.1_[T5G]_[T6C]_[A7T]_F5.1_[T8G]_T5.1] | 47.8 nM
27 | UCUCUUUGUAAAUAAUUCUCUU (ssRNA) [Ic_S1_P5E.1_K5.1_C5.1_H5.1_A5.1_[T5A]_[T6A]_[A7T]_F5.1_[T8A]_[T9A]_[A10T]_T5.1] | 30.5 nM
28 | UCUCUUUGUACUCCACUCUCUU (ssRNA) [Ic_S1_P5E.1_K5.1_C5.1_H5.1_A5.1_[T5C]_[A7C]_F5.1_[T8C]_[T9A]_[A10C]_T5.1] | 500 nM
29 | UCUCUUUGUAAACCUCUCUCUU (ssRNA) [Ic_S1_P5E.1_K5.1_C5.1_H5.1_A5.1_[T5A]_[T6A]_[A7C]_F5.1_[T8C]_[A10C]_T5.1] | 548 nM
30 | UCUCUUUGUAUCUCGCUCUCUU (ssRNA) [Ic_S1_P5E.1_K5.1_C5.1_H5.1_A5.1_[T6C]_[A7T]_F5.1_[T8C]_[T9G]_[A10C]_T5.1] | 160 nM
31 | UCUCUUUGUAUUUUCGUCUCUU (ssRNA) [Ic_S1_P5E.1_K5.1_C5.1_H5.1_A5.1_[A7T]_F5.1_[T9C]_[A10G]_T5.1] | 37.6 nM
32 | UCUCUUUGUAACCCCAUCUCUU (ssRNA) [Ic_S1_P5E.1_K5.1_C5.1_H5.1_A5.1_[T5A]_[T6C]_[A7C]_F5.1_[T8C]_[T9C]_T5.1] | 1280 nM
33 | UCUCUUUGUAGCCUACUCUCUU (ssRNA) [Ic_S1_P5E.1_K5.1_C5.1_H5.1_A5.1_[T5G]_[T6C]_[A7C]_F5.1_[T9A]_[A10C]_T5.1] | 48.9 nM
34 | UCUCUUUGUAGCAUUGUCUCUU (ssRNA) [Ic_S1_P5E.1_K5.1_C5.1_H5.1_A5.1_[T5G]_[T6C]_F5.1_[A10G]_T5.1] | 771 nM
35 | UCUCUUUGUACGUGCCUCUCUU (ssRNA) [Ic_S1_P5E.1_K5.1_C5.1_H5.1_A5.1_[T5C]_[T6G]_[A7T]_F5.1_[T8G]_[T9C]_[A10C]_T5.1] | 583 nM
36 | UCUCUUUGUAAUUUAGUCUCUU (ssRNA) [Ic_S1_P5E.1_K5.1_C5.1_H5.1_A5.1_[T5A]_[A7T]_F5.1_[T9A]_[A10G]_T5.1] | 3.08 nM
37 | UCUCUUUGUAAUCGACUCUCUU (ssRNA) [Ic_S1_P5E.1_K5.1_C5.1_H5.1_A5.1_[T5A]_[A7C]_F5.1_[T8G]_[T9A]_[A10C]_T5.1] | 1540 nM
38 | UCUCUUUGUAAACACUUCUCUU (ssRNA) [Ic_S1_P5E.1_K5.1_C5.1_H5.1_A5.1_[T5A]_[T6A]_[A7C]_F5.1_[T8A]_[T9C]_[A10T]_T5.1] | 666 nM
39 | UCUCUUUGUACACACGUCUCUU (ssRNA) [Ic_S1_P5E.1_K5.1_C5.1_H5.1_A5.1_[T5C]_[T6A]_[A7C]_F5.1_[T8A]_[T9C]_[A10G]_T5.1] | 122 nM
40 | UCUCUUUGUAAAUCCGUCUCUU (ssRNA) [Ic_S1_P5E.1_K5.1_C5.1_H5.1_A5.1_[T5A]_[T6A]_[A7T]_F5.1_[T8C]_[T9C]_[A10G]_T5.1] | 747 nM

Row | Binder | Kd
41 | UCUCUUUGUAUUUCCAUCUCUU (ssRNA) [Ic_S1_P5E.1_K5.1_C5.1_H5.1_A5.1_[A7T]_F5.1_[T8C]_[T9C]_T5.1] | 363 nM
42 | UCUCUUUGUAGCCCUUUCUCUU (ssRNA) [Ic_S1_P5E.1_K5.1_C5.1_H5.1_A5.1_[T5G]_[T6C]_[A7C]_F5.1_[T8C]_[A10T]_T5.1] | > 2300 nM
43 | UCUCUUUGUAUUCGAUUCUCUU (ssRNA) [Ic_S1_P5E.1_K5.1_C5.1_H5.1_A5.1_[A7C]_F5.1_[T8G]_[T9A]_[A10T]_T5.1] | 466 nM
44 | UCUCUUUGUAUCUCUCUCUU (ssRNA) [Ic_S1_P3E.1_K3.1_C3.1_H3.1_A3.1_[A6C]_F3.1_[A8C]_T3.1] | 97.4 nM
45 | UCUCUUUGUACAUGUAUCUCUU (ssRNA) [Ic_S1_P5E.1_K5.1_C5.1_H5.1_A5.1_[T5C]_[T6A]_[A7T]_F5.1_[T8G]_T5.1] | 8.91 nM
46 | UCUCUUUGUAGCGUUAUCUCUU (ssRNA) [Ic_S1_P5E.1_K5.1_C5.1_H5.1_A5.1_[T5G]_[T6C]_[A7G]_F5.1_T5.1] | 36.4 nM
47 | UCUCUUUGUAUCUGUCUCUU (ssRNA) [Ib_S1_P3E.1_K3.1_C3.1_H3.1_A3.1_[A6C]_F3.1_[A8G]_T3.1] | 81.8 nM
48 | UCUCUUUGUACAUGUGUCUCUU (ssRNA) [Ic_S1_P5E.1_K5.1_C5.1_H5.1_A5.1_[T5C]_[T6A]_[A7T]_F5.1_[T8G]_[A10G]_T5.1] | 27.2 nM
49 | UCUCUUUGUAUGCCGGUCUCUU (ssRNA) [Ic_S1_P5E.1_K5.1_C5.1_H5.1_A5.1_[T6G]_[A7C]_F5.1_[T8C]_[T9G]_[A10G]_T5.1] | > 2300 nM
50 | UCUCUUUGUAUAACCGUCUCUU (ssRNA) [Ic_S1_P5E.1_K5.1_C5.1_H5.1_A5.1_[T6A]_F5.1_[T8C]_[T9C]_[A10G]_T5.1] | 152 nM
51 | UCUCUUUGUAUCAGUGUCUCUU (ssRNA) [Ic_S1_P5E.1_K5.1_C5.1_H5.1_A5.1_[T6C]_F5.1_[T8G]_[A10G]_T5.1] | 441 nM
52 | UCUCUUUGUAUGUUUCUCUU (ssRNA) [Ic_S1_P3E.1_K3.1_C3.1_H3.1_A3.1_[A6G]_F3.1_[A8T]_T3.1] | 49.3 nM
53 | UCUCUUUGUAACCUAGUCUCUU (ssRNA) [Ic_S1_P5E.1_K5.1_C5.1_H5.1_A5.1_[T5A]_[T6C]_[A7C]_F5.1_[T9A]_[A10G]_T5.1] | 4.64 nM
54 | UCUCUUUGUAGCCCUAUCUCUU (ssRNA) [Ic_S1_P5E.1_K5.1_C5.1_H5.1_A5.1_[T5G]_[T6C]_[A7C]_F5.1_[T8C]_T5.1] | 113 nM
55 | UCUCUUUGUAAACGCUUCUCUU (ssRNA) [Ic_S1_P5E.1_K5.1_C5.1_H5.1_A5.1_[T5A]_[T6A]_[A7C]_F5.1_[T8G]_[T9C]_[A10T]_T5.1] | 854 nM
56 | UCUCUUUGUAUUUCUCUCUU (ssRNA) [Ic_S1_P3E.1_K3.1_C3.1_H3.1_A3.1_[A6T]_F3.1_[A8C]_T3.1] | 111 nM
57 | UCUCUUUGUACGUUGUUCUCUU (ssRNA) [Ic_S1_P5E.1_K5.1_C5.1_H5.1_A5.1_[T5C]_[T6G]_[A7T]_F5.1_[T9G]_[A10T]_T5.1] | 34.8 nM
58 | UCUCUUUGUAGCAACCUCUCUU (ssRNA) [Ic_S1_P5E.1_K5.1_C5.1_H5.1_A5.1_[T5G]_[T6C]_F5.1_[T8A]_[T9C]_[A10C]_T5.1] | 1850 nM
59 | UCUCUUUGUAGUUCCUUCUCUU (ssRNA) [Ic_S1_P5E.1_K5.1_C5.1_H5.1_A5.1_[T5G]_[A7T]_F5.1_[T8C]_[T9C]_[A10T]_T5.1] | 1760 nM
